Laboratory results taken from the Human Domainome abundance scans (Beltran et al. 2025).
± gives the uncertainty stated by the source.

B1: DnaJ homolog subfamily C member 5, residues 16 to 77; numbered along this chain, Q9H3Z4 (parent)
chain: LYHVLGLDKNATSDDIKKSYRKLALKYHPDKNPDNPEAADKFKEINNAHAILTDATKRNIYD

Variants of: B1
Experiment: abundance fitness (aPCA) (normalised: wild type 0, dead -1); higher = more abundant; growth selection in yeast, the domain comes from the species named
Details: Homo sapiens

Variant	abundance fitness
D40H	0.156 ± 0.15
D54K	-0.056 ± 0.19
E44A	-0.135 ± 0.086
D62R	-0.428 ± 0.4
T53G	0.07 ± 0.065
K26T	-0.189 ± 0.11
K17S	-0.153 ± 0.075
S13V	-0.162 ± 0.07
K31C	-0.64 ± 0.13
L23Y	-0.403 ± 0.17
L23I	-0.736 ± 0.47
A50L	-0.386 ± 0.083
L7F	-0.734 ± 0.15
A11R	-0.846 ± 0.1
D30R	-0.207 ± 0.06
K22Y	-0.246 ± 0.14
